Measurements reported in paper PMC12342132, “Mechanistic insights into the GEF activity of the human MON1A/CCZ1/C18orf8 complex” (Protein & Cell, 2025).

B1: MON1A (235–652) (domain or fragment, human, UniProt Q86VX9 235-652, looked up)
chain: GTTEGDEEDATEAWRLHQKHVFVLSEAGKPVYSRYGSEEALSSTMGVMVALVSFLEADKNAIRSIHADGYKVVFVRRSPLVLVAVARTRQSAQELAQELLYIYYQILSLLTGAQLSHIFQQKQNYDLRRLLSGSERITDNLLQLMARDPSFLMGAARCLPLAAAVRDTVSASLQQARARSLVFSILLARNQLVALVRRKDQFLHPIDLHLLFNLISSSSSFREGEAWTPVCLPKFNAAGFFHAHISYLEPDTDLCLLLVSTDREDFFAVSDCRRRFQERLRKRGAHLALREALRTPYYSVAQVGIPDLRHFLYKSKSSGLFTSPEIEAPYTSEEEQERLLGLYQYLHSRAHNASRPLKTIYYTGPNENLLAWVTGAFELYMCYSPLGTKASAVSAIHKLMRWIRKEEDRLFILTPLTY
notes: Subunit of m3, written alone for the pairwise contacts in the structure
B2: CCZ1 (1–482) (natural protein, human, UniProt P86791 1-482, looked up)
chain: MAAAAAGAGSGPWAAQEKQFPPALLSFFIYNPRFGPREGQEENKILFYHPNEVEKNEKIRNVGLCEAIVQFTRTFSPSKPAKSLHTQKNRQFFNEPEENFWMVMVVRNPIIEKQSKDGKPVIEYQEEELLDKVYSSVLRQCYSMYKLFNGTFLKAMEDGGVKLLKERLEKFFHRYLQTLHLQSCDLLDIFGGISFFPLDKMTYLKIQSFINRMEESLNIVKYTAFLYNDQLIWSGLEQDDMRILYKYLTTSLFPRHIEPELAGRDSPIRAEMPGNLQHYGRFLTGPLNLNDPDAKCRFPKIFVNTDDTYEELHLIVYKAMSAAVCFMIDASVHPTLDFCRRLDSIVGPQLTVLASDICEQFNINKRMSGSEKEPQFKFIYFNHMNLAEKSTVHMRKTPSVSLTSVHPDLMKILGDINSDFTRVDEDEEIIVKAMSDYWVVGKKSDRRELYVILNQKNANLIEVNEEVKKLCATQFNNIFFLD
notes: human CCZ1, residues 1-482; Subunit of m3, written alone for the pairwise contacts in the structure

How the values were obtained:
[1] = biological target: B2; experiment: cryo-EM structure; MON1A (235–652)/CCZ1 (1–482)/C18orf8 (1–657)/Rab7A (1–181) T22N complex, 3.41 Å; details: both partners purified
[2] = biological target: T1, C18orf8 (1–657) (human, UniProt Q96DM3 1-657); experiment: as above; details: both partners purified
T1 construct: Subunit of m3, written alone for the pairwise contacts in the structure
T1 sequence (looked up): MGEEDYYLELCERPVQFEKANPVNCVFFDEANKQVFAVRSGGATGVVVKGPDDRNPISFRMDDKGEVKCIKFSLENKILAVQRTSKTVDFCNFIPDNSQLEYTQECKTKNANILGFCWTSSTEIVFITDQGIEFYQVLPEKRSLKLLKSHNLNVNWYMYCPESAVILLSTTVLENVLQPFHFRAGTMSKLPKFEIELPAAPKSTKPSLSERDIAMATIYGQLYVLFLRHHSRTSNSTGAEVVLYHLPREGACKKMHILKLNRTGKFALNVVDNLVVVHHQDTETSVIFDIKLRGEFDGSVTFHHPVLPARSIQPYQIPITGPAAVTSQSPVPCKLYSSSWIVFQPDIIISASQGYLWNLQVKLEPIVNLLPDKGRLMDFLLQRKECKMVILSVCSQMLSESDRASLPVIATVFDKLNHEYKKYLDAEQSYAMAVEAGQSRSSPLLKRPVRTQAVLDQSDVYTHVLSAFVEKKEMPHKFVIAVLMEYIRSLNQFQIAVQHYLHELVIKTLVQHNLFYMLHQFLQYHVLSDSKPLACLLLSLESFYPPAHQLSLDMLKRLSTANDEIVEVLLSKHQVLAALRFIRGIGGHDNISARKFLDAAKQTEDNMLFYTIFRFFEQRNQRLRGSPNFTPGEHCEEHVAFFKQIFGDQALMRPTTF

binding result [1]	binding result [2]	Binder
binds	binds	B1
–	binds	B2
